Square brackets hold non-standard residues; d marks the D form. Ends that are not written are not given here. Nle = CCCC[C@H](N)C(=O)O
B1: metallopeptide 3-11 (peptide)
peptide: YVC[Nle]GH[dF]RWDRF-NH2
modifications: bridge (positions not given here); not fully specified (bridges); printed as Tyr-Val-Cys-Nle-Gly-His-D-Phe-Arg-Trp-Asp-Arg-Phe-NH2.; also: oxorhenium(V) N3S1 complex
B2: metallopeptide 5-5 (peptide)
peptide: YV[Nle]GH[dF]CWDRF-NH2
modifications: also: oxorhenium(V) N3S1 chelate: C7 SG + backbone N of H5, F6, C7, bridge at 7 via Re(V)=O, other end not in the chain
B3: metallopeptide 5-4 (peptide)
peptide: YV[Nle]GH[dF]RCDRF-NH2
modifications: also: oxorhenium(V) N3S1 chelate: C8 SG + backbone N of F6, R7, C8, bridge at 8 via Re(V)=O, other end not in the chain
B4: metallopeptide 5-6 (peptide)
peptide: YV[Nle]GHCRWDRF-NH2
modifications: also: oxorhenium(V) N3S1 chelate: C6 SG + backbone N of G4, H5, C6, bridge at 6 via Re(V)=O, other end not in the chain
B5: metallopeptide 5-7 (peptide)
peptide: YV[Nle]GC[dF]RWDRF-NH2
modifications: also: oxorhenium(V) N3S1 chelate: C5 SG + backbone N of X3, G4, C5, bridge at 5 via Re(V)=O, other end not in the chain
B6: metallopeptide 5-2 (peptide)
peptide: YV[Nle]GH[dF]RWDCF-NH2
modifications: also: oxorhenium(V) N3S1 chelate: C10 SG + backbone N of W8, D9, C10, bridge at 10 via Re(V)=O, other end not in the chain
B7: metallopeptide 5-1 (peptide)
peptide: YV[Nle]GH[dF]RWDRC-NH2
modifications: also: oxorhenium(V) N3S1 chelate: C11 SG + backbone N of D9, R10, C11, bridge at 11 via Re(V)=O, other end not in the chain
B8: metallopeptide 5-8 (peptide)
peptide: YV[Nle]CH[dF]RWDRF-NH2
modifications: also: oxorhenium(V) N3S1 chelate: C4 SG + backbone N of V2, X3, C4, bridge at 4 via Re(V)=O, other end not in the chain
B9: metallopeptide 5-3 (peptide)
peptide: YV[Nle]GH[dF]RWCRF-NH2
modifications: also: oxorhenium(V) N3S1 chelate: C9 SG + backbone N of R7, W8, C9, bridge at 9 via Re(V)=O, other end not in the chain

These binders were tested against T1, melanocortin-1 receptor (MC1-R) of B-16 mouse melanoma cells (mouse, UniProt Q01727 1-315) (assay: 125I-NDP-α-MSH competition, B-16 membranes).
T1 construct: whole, on cells; membranes prepared from the cells were used; also called Melanocortin Receptor 1
T1 sequence (Q01727 whole entry): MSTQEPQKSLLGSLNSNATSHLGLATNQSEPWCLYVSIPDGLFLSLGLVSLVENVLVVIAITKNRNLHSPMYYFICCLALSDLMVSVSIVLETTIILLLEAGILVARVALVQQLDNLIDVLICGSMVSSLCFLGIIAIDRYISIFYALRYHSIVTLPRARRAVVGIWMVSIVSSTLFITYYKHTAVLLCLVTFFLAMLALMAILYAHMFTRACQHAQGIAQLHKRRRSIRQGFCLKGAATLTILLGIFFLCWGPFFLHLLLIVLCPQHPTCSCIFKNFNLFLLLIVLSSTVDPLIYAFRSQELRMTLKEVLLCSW
Experimental: (§1) The competitive inhibition binding assay was conducted using membranes prepared from hMC3-R, hMC4-R, hMC5-R, and B-16 mouse melanoma cells (containing MC1-R) using 0.4 nM ¹²⁵I-NDP-alpha-MSH (New England Nuclear, Boston, Mass., USA) in 50 mM HEPES buffer containing 1 mM MgCl₂, 2 mM CaCl₂, and 5 mM KCl, at pH 7.2. […] Incubation was for 90 minutes at room temperature, after which the assay mixture was filtered and the membranes washed three times with ice cold buffer. The filter was dried and counted in a gamma counter for remaining radioactivity bound to the membranes. 100% specific binding was defined as the difference in radioactivity (cpm) bound to cell membranes in the absence and presence of 1 μM α-MSH. […] Each assay was conducted in triplicate and the actual mean valves are described.
(§2) The first unnumbered peptide in Table 3 is the parent polypeptide, which is a Nle³, D-Phe⁶ substituted γ-MSH analog specific for melanocortin receptors. The methods and assays set forth in Example 1 were followed.
With YV[Nle]CGH[dF]RWDRF-NH2 (also: Re(V)=O N3S1 chelate via V2 N, Nle3 N, Cys4 N and S (ReOCl3(PPh3)2)) [metallopeptide 3-10] the “% Inhibition at 1 µM” value was 84%. With B1 the “% Inhibition at 1 µM” value was 95%. In the case of YVXGHFRWDRF (Nle 3 (X in letters); D-Phe 6; C-terminal amide, not complexed to Re) [[Nle3, D-Phe6]-γ-MSH parent polypeptide Tyr-Val-Nle-Gly-His-D-Phe-Arg-Trp-Asp-Arg-Phe-NH2], the “% Inhibition at 1 µM” value is reported as 99%.

What follows are binders tested against T2, human melanocortin-3 receptor (hMC3-R) (human, UniProt P41968 1-323) (assay: 125I-NDP-α-MSH competition, hMC3-R membranes).
T2 construct: whole, on cells; membranes prepared from hMC3-R cells were used; also called Melanocortin Receptor 3
T2 sequence (P41968 whole entry): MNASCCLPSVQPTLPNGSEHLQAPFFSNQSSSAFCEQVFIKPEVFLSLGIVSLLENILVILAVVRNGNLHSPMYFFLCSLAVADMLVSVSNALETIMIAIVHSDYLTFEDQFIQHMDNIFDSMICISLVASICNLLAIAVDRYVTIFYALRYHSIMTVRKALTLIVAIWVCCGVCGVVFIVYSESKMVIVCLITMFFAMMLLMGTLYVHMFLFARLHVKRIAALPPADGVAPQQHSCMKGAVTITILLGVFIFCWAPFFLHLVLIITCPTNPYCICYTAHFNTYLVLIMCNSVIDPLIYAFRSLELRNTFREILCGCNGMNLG
Experimental: as §1
(§3) The first unnumbered peptide in Table 5 is the parent polypeptide, which is a γ-MSH analog specific for melanocortin receptors. The methods and assays set forth in Example 1 were followed.
In the case of YVCGH[dF]RWDRF-NH2 (also: oxorhenium(V) N3S1 chelate complex at Cys3) [metallopeptide 5-9], the “% Inhibition at 1 µM” value is reported as 53%. YVXGHFRWDRF (Nle 3 (X in letters); D-Phe 6; C-terminal amide, not complexed to Re) [[Nle3, D-Phe6]-γ-MSH parent polypeptide Tyr-Val-Nle-Gly-His-D-Phe-Arg-Trp-Asp-Arg-Phe-NH2] was tested, and the “% Inhibition at 1 µM” value was 100%. In the case of B2, the “% Inhibition at 1 µM” value is reported as 15%. With B3 the “% Inhibition at 1 µM” value was 11%. In the case of B4, the “% Inhibition at 1 µM” value is reported as 26%. In the case of B5, the “% Inhibition at 1 µM” value is reported as 70%. With B6 the “% Inhibition at 1 µM” value was 39%. With B7 the “% Inhibition at 1 µM” value was 92%. For B8, the “% Inhibition at 1 µM” value was 89%. For B9, the “% Inhibition at 1 µM” value was 93%.

Target: T2, human melanocortin-3 receptor (hMC3-R)
Assay: 125I-NDP-α-MSH competition, hMC3-R membranes
Remark: another data set of the same source
Experimental: as §1, §2
With YV[Nle]CGH[dF]RWDRF-NH2 (also: Re(V)=O N3S1 chelate via V2 N, Nle3 N, Cys4 N and S (ReOCl3(PPh3)2)) [metallopeptide 3-10] the “% Inhibition at 1 µM” value was 78%. With B1 the “% Inhibition at 1 µM” value was 85%. YVXGHFRWDRF (Nle 3 (X in letters); D-Phe 6; C-terminal amide, not complexed to Re) [[Nle3, D-Phe6]-γ-MSH parent polypeptide Tyr-Val-Nle-Gly-His-D-Phe-Arg-Trp-Asp-Arg-Phe-NH2] was tested, and the “% Inhibition at 1 µM” value was 100%.

The binders below were run against T3, human melanocortin-5 receptor (hMC5-R) (human, UniProt P33032 1-325) (assay: 125I-NDP-α-MSH competition, hMC5-R membranes).
T3 construct: whole, on cells; membranes prepared from hMC5-R cells were used; also called Melanocortin Receptor 5
T3 sequence (P33032 whole entry): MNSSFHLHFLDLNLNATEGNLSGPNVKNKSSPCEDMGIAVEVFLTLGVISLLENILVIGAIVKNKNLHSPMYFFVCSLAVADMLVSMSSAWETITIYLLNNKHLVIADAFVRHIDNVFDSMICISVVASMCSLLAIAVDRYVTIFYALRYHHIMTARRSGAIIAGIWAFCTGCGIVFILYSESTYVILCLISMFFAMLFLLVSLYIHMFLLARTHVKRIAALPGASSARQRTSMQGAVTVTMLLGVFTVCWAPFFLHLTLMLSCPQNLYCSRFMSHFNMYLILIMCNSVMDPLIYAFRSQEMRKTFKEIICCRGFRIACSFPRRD
Experimental: as §1, §2
YV[Nle]CGH[dF]RWDRF-NH2 (also: Re(V)=O N3S1 chelate via V2 N, Nle3 N, Cys4 N and S (ReOCl3(PPh3)2)) [metallopeptide 3-10] was tested, and the “% Inhibition at 1 µM” value was 86%. With B1 the “% Inhibition at 1 µM” value was 92%. With YVXGHFRWDRF (Nle 3 (X in letters); D-Phe 6; C-terminal amide, not complexed to Re) [[Nle3, D-Phe6]-γ-MSH parent polypeptide Tyr-Val-Nle-Gly-His-D-Phe-Arg-Trp-Asp-Arg-Phe-NH2] the “% Inhibition at 1 µM” value was 100%.

Target: T3, human melanocortin-5 receptor (hMC5-R)
Assay: 125I-NDP-α-MSH competition, hMC5-R membranes
Remark: another data set of the same source
Experimental: as §1, §3
For YVCGH[dF]RWDRF-NH2 (also: oxorhenium(V) N3S1 chelate complex at Cys3) [metallopeptide 5-9], the “% Inhibition at 1 µM” value was 53%. YVXGHFRWDRF (Nle 3 (X in letters); D-Phe 6; C-terminal amide, not complexed to Re) [[Nle3, D-Phe6]-γ-MSH parent polypeptide Tyr-Val-Nle-Gly-His-D-Phe-Arg-Trp-Asp-Arg-Phe-NH2] was tested, and the “% Inhibition at 1 µM” value was 100%. B2 was tested, and the “% Inhibition at 1 µM” value was 28%. With B3 the “% Inhibition at 1 µM” value was 58%. With B4 the “% Inhibition at 1 µM” value was 21%. In the case of B5, the “% Inhibition at 1 µM” value is reported as 88%. With B6 the “% Inhibition at 1 µM” value was 61%. For B7, the “% Inhibition at 1 µM” value was 98%. With B8 the “% Inhibition at 1 µM” value was 98%. With B9 the “% Inhibition at 1 µM” value was 100%.

These binders were tested against T4, human melanocortin-4 receptor (hMC4-R) (human, UniProt P32245 1-332) (assay: 125I-NDP-α-MSH competition, hMC4-R membranes).
T4 construct: whole, on cells; membranes prepared from hMC4-R cells were used; also called Melanocortin Receptor 4
T4 sequence (P32245 whole entry): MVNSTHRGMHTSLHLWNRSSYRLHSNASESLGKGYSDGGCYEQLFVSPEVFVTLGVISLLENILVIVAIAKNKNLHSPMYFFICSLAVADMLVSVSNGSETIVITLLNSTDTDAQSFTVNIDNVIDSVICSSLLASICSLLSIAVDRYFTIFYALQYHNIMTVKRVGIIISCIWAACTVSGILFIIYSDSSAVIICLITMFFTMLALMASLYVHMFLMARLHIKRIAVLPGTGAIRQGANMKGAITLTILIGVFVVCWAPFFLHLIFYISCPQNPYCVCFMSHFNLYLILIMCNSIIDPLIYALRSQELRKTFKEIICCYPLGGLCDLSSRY
Experimental: as §1, §2
In the case of YV[Nle]CGH[dF]RWDRF-NH2 (also: Re(V)=O N3S1 chelate via V2 N, Nle3 N, Cys4 N and S (ReOCl3(PPh3)2)) [metallopeptide 3-10], the “% Inhibition at 1 µM” value is reported as 80%. For B1, the “% Inhibition at 1 µM” value was 82%. YVXGHFRWDRF (Nle 3 (X in letters); D-Phe 6; C-terminal amide, not complexed to Re) [[Nle3, D-Phe6]-γ-MSH parent polypeptide Tyr-Val-Nle-Gly-His-D-Phe-Arg-Trp-Asp-Arg-Phe-NH2] was tested, and the “% Inhibition at 1 µM” value was 99%.

Target: T4, human melanocortin-4 receptor (hMC4-R)
Assay: 125I-NDP-α-MSH competition, hMC4-R membranes
Remark: another data set of the same source
Experimental: as §1, §3
YVCGH[dF]RWDRF-NH2 (also: oxorhenium(V) N3S1 chelate complex at Cys3) [metallopeptide 5-9] was tested, and the “% Inhibition at 1 µM” value was 66%. YVXGHFRWDRF (Nle 3 (X in letters); D-Phe 6; C-terminal amide, not complexed to Re) [[Nle3, D-Phe6]-γ-MSH parent polypeptide Tyr-Val-Nle-Gly-His-D-Phe-Arg-Trp-Asp-Arg-Phe-NH2] was tested, and the “% Inhibition at 1 µM” value was 99%. For B2, the “% Inhibition at 1 µM” value was 26%. In the case of B3, the “% Inhibition at 1 µM” value is reported as 18%. B4 was tested, and the “% Inhibition at 1 µM” value was 4%. With B5 the “% Inhibition at 1 µM” value was 69%. In the case of B6, the “% Inhibition at 1 µM” value is reported as 58%. With B7 the “% Inhibition at 1 µM” value was 95%. With B8 the “% Inhibition at 1 µM” value was 86%. For B9, the “% Inhibition at 1 µM” value was 97%.

Target: T1, melanocortin-1 receptor (MC1-R) of B-16 …
Assay: 125I-NDP-α-MSH competition, B-16 membranes
Remark: another data set of the same source
Experimental: as §1, §3
YVCGH[dF]RWDRF-NH2 (also: oxorhenium(V) N3S1 chelate complex at Cys3) [metallopeptide 5-9] was tested, and the “% Inhibition at 1 µM” value was 89%. For YVXGHFRWDRF (Nle 3 (X in letters); D-Phe 6; C-terminal amide, not complexed to Re) [[Nle3, D-Phe6]-γ-MSH parent polypeptide Tyr-Val-Nle-Gly-His-D-Phe-Arg-Trp-Asp-Arg-Phe-NH2], the “% Inhibition at 1 µM” value was 99%. B2 was tested, and the “% Inhibition at 1 µM” value was 67%. With B3 the “% Inhibition at 1 µM” value was 86%. B4 was tested, and the “% Inhibition at 1 µM” value was 74%. With B5 the “% Inhibition at 1 µM” value was 89%. For B6, the “% Inhibition at 1 µM” value was 95%. For B7, the “% Inhibition at 1 µM” value was 101%. For B8, the “% Inhibition at 1 µM” value was 95%. With B9 the “% Inhibition at 1 µM” value was 100%.

Reference: patent US20050282739A1 (PALATIN TECHNOLOGIES, published 2005)
